In patent US20230220084A1:
Values joined by “and” are separate entries in the source; they are usually repeats but may differ in a detail not shown here. Equal values may be shown once.

Experiments:
[1] = target: human CLEC12A expressed on cells (human) (UniProt Q5QGZ9); test: flow cytometry, hCLEC12A+Ba/F3 cells
[2] = target: hCLEC12A-His fusion protein (human) (UniProt Q5QGZ9); test: SPR (Biacore) 37 C, mean of 4
[3] = target: hCLEC12A-His fusion protein (human) (UniProt Q5QGZ9); test: SPR (Biacore) 37 C
[4] = target: hCLEC12A-His fusion protein (human) (UniProt Q5QGZ9); test: SPR screening, semi-purified protein

Sequence of hCLEC12A-His fusion protein (human) (Q5QGZ9 65-265 limits assumed): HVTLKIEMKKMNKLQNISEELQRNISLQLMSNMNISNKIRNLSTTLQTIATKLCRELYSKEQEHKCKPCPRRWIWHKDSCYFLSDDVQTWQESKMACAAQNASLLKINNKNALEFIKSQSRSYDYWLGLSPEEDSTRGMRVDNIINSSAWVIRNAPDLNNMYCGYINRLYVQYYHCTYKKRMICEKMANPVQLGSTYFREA
Sequence of human CLEC12A expressed on cells (human) (Q5QGZ9 whole entry, the tested form may be a part): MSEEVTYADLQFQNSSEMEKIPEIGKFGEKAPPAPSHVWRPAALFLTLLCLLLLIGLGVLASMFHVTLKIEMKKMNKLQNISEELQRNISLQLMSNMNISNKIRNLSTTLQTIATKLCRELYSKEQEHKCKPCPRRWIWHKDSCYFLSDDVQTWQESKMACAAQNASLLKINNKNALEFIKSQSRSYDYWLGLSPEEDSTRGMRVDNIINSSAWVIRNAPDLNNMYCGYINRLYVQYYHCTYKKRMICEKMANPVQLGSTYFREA

- EC50 [1]: 26.1 nM
- Max MFI [1]: 48000 MFI
- Kd [2]: 1.43 nM
- koff [2]: 0.000594 s⁻¹
- kon [2]: 415000 M⁻¹ s⁻¹
- Kd [3]: 1.43 nM and 1.42 nM and 1.44 nM
- Kd [4]: 2.94 nM
- koff [4]: 0.00153 s⁻¹
- kon [4]: 520000 M⁻¹ s⁻¹
B1: F3′-1295 (bispecific antibody, part only; not given: Fc and unrelated binding arm, not shown: another chain or arm of the molecule; a dimerising Fc or GST)
scFv: QLQLQESGPGLVKPSETLSLTCTVSGFSLTNYGLHWIRQPPGKCLEWIGVIWSGGKTDYNPSLKSRVTISKDTSKNQFSLKLSSVQAADTAVYYCAKYDYDDSLDYWGQGTLVTVSSGGGGSGGGGSGGGGSGGGGSDIQMTQSPSSLSASVGDRVTITCHASQNINFWLSWYQQKPGKIPKLLIYEASNLHTGVPSRFSGSGSGTRFTLTISSLQPEDIATYYCQQSHSYPLTFGCGTKLEIK
